Laboratory results from PMC12532918.

Target: T1, CXCR4-CFP / CXCR4-YFP (human), P61073
T1 chain: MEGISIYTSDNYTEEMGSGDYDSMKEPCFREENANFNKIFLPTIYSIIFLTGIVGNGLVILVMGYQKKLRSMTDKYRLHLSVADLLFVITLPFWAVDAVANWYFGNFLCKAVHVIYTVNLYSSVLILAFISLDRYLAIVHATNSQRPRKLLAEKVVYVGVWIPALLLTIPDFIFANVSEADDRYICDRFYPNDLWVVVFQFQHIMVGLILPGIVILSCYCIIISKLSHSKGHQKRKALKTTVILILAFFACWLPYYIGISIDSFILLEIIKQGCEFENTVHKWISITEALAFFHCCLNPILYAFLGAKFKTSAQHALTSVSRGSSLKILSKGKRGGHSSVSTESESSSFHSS
Experiment: FRET or BRET; FLIM (CFP donor lifetime) in live HEK-293T cells transfected with CXCR4-YFP/CXCR4-CFP or 5HTR2B-YFP/CXCR4-CFP (15 µg : 9 µg); CXCR4-CFP alone as reference; untreated or ChOx (25 U/mL, 2 h, 37 °C); without or with CXCL12 (100 nM, 30 min)
Conditions: remark: other sources report otherwise

B1: CXCR4-CFP / CXCR4-YFP, P61073 1-352 (receptor)
chain: T1 chain
In the case of B1, the CFP donor lifetime (CFPτ), ChOx-treated cells (2.03 ns for CXCR4-CFP alone) is reported as 1.82 ns, the CFP donor lifetime (CFPτ), ChOx-treated cells with CXCL12 is reported as 1.75 ns and the CFP donor lifetime (CFPτ), untreated cells (2.03 ns for CXCR4-CFP alone) is reported as 1.7 ns. It also gave a CFP donor lifetime (CFPτ), untreated cells with CXCL12 of 1.61 ns.
